# System: Escherichia coli TOP10
# Assay: shrunken log2 fold change of peptide-encoding DNA abundance (4.5 h post-induction vs induction); higher = less antimicrobial activity (less host growth inhibition)
# Settings: time post-induction: 4.5 h; library: site-saturation at positions 5, 18, 19, 20
# 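Further: peptides expressed intracellularly from a pBAD plasmid library in pooled LB shake-flask culture, induced with 0.3% L-arabinose, DNA abundance read by NGS, three biological replicates, DESeq2 with apeglm shrinkage.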
row,Sequence,shrunken log2 fold change
1,RRIRLRPPRLPRPRPRPEQLPRP,0.131
2,RRIRARPPRLPRPRPRPSLNPRP,-0.0562
3,RRIRQRPPRLPRPRPRPNNEPRP,-0.885
4,RRIRNRPPRLPRPRPRPMNDPRP,0.42
5,RRIRIRPPRLPRPRPRPIRVPRP,-0.0611
6,RRIRTRPPRLPRPRPRPYAPPRP,-1.07
7,RRIRFRPPRLPRPRPRPCFTPRP,-0.237
8,RRIRFRPPRLPRPRPRPKDIPRP,-0.676
9,RRIRMRPPRLPRPRPRPNAPPRP,-0.0273
10,RRIRCRPPRLPRPRPRPDGNPRP,-0.158
11,RRIRWRPPRLPRPRPRPGDNPRP,0.106
12,RRIRRRPPRLPRPRPRPTWEPRP,0.0289
13,RRIRQRPPRLPRPRPRPAHTPRP,0.379
14,RRIRVRPPRLPRPRPRPFHQPRP,0.032
15,RRIRVRPPRLPRPRPRPITFPRP,-0.0498
16,RRIRQRPPRLPRPRPRPMCAPRP,0.195
17,RRIRRRPPRLPRPRPRPIHKPRP,0.27
18,RRIRRRPPRLPRPRPRPYQCPRP,0.0675
19,RRIRYRPPRLPRPRPRPQFSPRP,0.0125
20,RRIRVRPPRLPRPRPRPGDRPRP,0.365
21,RRIRTRPPRLPRPRPRPTYHPRP,-0.291
22,RRIRNRPPRLPRPRPRPPWRPRP,0.437
23,RRIRGRPPRLPRPRPRPTYGPRP,0.372
24,RRIRMRPPRLPRPRPRPDNFPRP,-0.184
25,RRIRIRPPRLPRPRPRPFRTPRP,-0.241

row,Sequence,shrunken log2 fold change
1,RRIRSRPPRLPRPRPRPCHRPRP,-0.0558
2,RRIRPRPPRLPRPRPRPWWEPRP,0.0134
3,RRIRPRPPRLPRPRPRPNRCPRP,0.0358
4,RRIRHRPPRLPRPRPRPIFFPRP,0.0211
5,RRIRVRPPRLPRPRPRPPKVPRP,0.392
6,RRIRVRPPRLPRPRPRPPNYPRP,-0.194
7,RRIRFRPPRLPRPRPRPAITPRP,-0.136
8,RRIRYRPPRLPRPRPRPWFFPRP,-0.841
9,RRIRFRPPRLPRPRPRPRNQPRP,-0.114
10,RRIRARPPRLPRPRPRPFHAPRP,-0.0904
11,RRIRNRPPRLPRPRPRPKAFPRP,-0.0608
12,RRIRCRPPRLPRPRPRPCQHPRP,-0.161
13,RRIRPRPPRLPRPRPRPWRTPRP,0.141
14,RRIRGRPPRLPRPRPRPCAPPRP,0.826
15,RRIRHRPPRLPRPRPRPDEMPRP,0.0307
16,RRIRFRPPRLPRPRPRPYFVPRP,-0.59
17,RRIRERPPRLPRPRPRPWDWPRP,0.0223
18,RRIRFRPPRLPRPRPRPMTSPRP,-0.552
19,RRIRYRPPRLPRPRPRPRIEPRP,0.0242
20,RRIRIRPPRLPRPRPRPLHIPRP,-1.21
21,RRIRMRPPRLPRPRPRPDYVPRP,-0.183
22,RRIRTRPPRLPRPRPRPMVYPRP,-0.09
23,RRIRDRPPRLPRPRPRPFEIPRP,-0.0367
24,RRIRNRPPRLPRPRPRPPEGPRP,1.62
25,RRIRNRPPRLPRPRPRPFKFPRP,-0.423

row,Sequence,shrunken log2 fold change
1,RRIRYRPPRLPRPRPRPWCAPRP,-0.255
2,RRIRHRPPRLPRPRPRPRVKPRP,-0.00109
3,RRIRERPPRLPRPRPRPTGYPRP,-0.0056
4,RRIRYRPPRLPRPRPRPLAYPRP,-0.15
5,RRIRARPPRLPRPRPRPYEGPRP,-0.195
6,RRIRTRPPRLPRPRPRPATIPRP,-0.0446
7,RRIRERPPRLPRPRPRPIFGPRP,-0.112
8,RRIRCRPPRLPRPRPRPNIYPRP,-0.588
9,RRIRSRPPRLPRPRPRPRRKPRP,0.207
10,RRIRARPPRLPRPRPRPYTRPRP,-0.124
11,RRIRYRPPRLPRPRPRPKCEPRP,-0.0192
12,RRIRGRPPRLPRPRPRPYYCPRP,-0.172
13,RRIRRRPPRLPRPRPRPCAPPRP,0.275
14,RRIRIRPPRLPRPRPRPKSLPRP,0.0615
15,RRIRTRPPRLPRPRPRPEWIPRP,0.0842
16,RRIRSRPPRLPRPRPRPCPRPRP,0.056
17,RRIRSRPPRLPRPRPRPSQVPRP,-0.323
18,RRIRRRPPRLPRPRPRPHPDPRP,0.474
19,RRIRMRPPRLPRPRPRPTTEPRP,0.897
20,RRIRSRPPRLPRPRPRPYMFPRP,-0.648
21,RRIRWRPPRLPRPRPRPLDPPRP,0.0629
22,RRIRTRPPRLPRPRPRPLVPPRP,0.193
23,RRIRARPPRLPRPRPRPIYQPRP,0.0519
24,RRIRFRPPRLPRPRPRPGGSPRP,-0.0392
25,RRIRERPPRLPRPRPRPKEVPRP,-0.324
